One molecule from publication PMC4203341 (Developmental cell, 2014) can be followed below.

The target of the assay is T1, Trim58 PS domain (purified, for SEC-MALLS) (mouse, UniProt Q5NCC9 1-485).
T1 sequence (looked up): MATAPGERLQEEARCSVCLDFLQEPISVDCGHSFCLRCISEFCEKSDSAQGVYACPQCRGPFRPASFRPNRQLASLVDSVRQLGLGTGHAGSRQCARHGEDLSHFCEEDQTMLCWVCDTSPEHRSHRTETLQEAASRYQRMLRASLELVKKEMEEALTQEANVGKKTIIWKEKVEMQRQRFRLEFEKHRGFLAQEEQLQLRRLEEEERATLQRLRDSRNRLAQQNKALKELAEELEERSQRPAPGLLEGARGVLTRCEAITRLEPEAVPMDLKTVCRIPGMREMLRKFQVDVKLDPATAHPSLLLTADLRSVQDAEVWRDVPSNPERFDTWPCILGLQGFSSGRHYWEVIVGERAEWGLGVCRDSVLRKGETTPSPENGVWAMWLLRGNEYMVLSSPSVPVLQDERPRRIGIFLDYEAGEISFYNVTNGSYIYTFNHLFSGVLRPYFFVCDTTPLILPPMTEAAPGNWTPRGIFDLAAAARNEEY
Briefly: SEC-MALS.

B1: GST-DIC (1–120) (domain or fragment)
chain: MSDKSDLKAELERKKQRLAQIREEKKRKEEERKKKETDQKKEAAVSVQEESDLEKKRREAEALLQSMGLTTDSPIVPPPMSPSSKSVSTPSEAGSQDSGDGAVGSRRGPIKLGMAKITQV
A word on the stoichiometry N: it is a count of units in the complex or per binding partner. Turning to B1, the “stoichiometry N” value came to 1.
